According to PMC9522604:
Read-outs that look alike come from different tables or passages of the source.

T1: Cas12c2 (UniProt PDB:7V94_1 1-1232)
T1 sequence: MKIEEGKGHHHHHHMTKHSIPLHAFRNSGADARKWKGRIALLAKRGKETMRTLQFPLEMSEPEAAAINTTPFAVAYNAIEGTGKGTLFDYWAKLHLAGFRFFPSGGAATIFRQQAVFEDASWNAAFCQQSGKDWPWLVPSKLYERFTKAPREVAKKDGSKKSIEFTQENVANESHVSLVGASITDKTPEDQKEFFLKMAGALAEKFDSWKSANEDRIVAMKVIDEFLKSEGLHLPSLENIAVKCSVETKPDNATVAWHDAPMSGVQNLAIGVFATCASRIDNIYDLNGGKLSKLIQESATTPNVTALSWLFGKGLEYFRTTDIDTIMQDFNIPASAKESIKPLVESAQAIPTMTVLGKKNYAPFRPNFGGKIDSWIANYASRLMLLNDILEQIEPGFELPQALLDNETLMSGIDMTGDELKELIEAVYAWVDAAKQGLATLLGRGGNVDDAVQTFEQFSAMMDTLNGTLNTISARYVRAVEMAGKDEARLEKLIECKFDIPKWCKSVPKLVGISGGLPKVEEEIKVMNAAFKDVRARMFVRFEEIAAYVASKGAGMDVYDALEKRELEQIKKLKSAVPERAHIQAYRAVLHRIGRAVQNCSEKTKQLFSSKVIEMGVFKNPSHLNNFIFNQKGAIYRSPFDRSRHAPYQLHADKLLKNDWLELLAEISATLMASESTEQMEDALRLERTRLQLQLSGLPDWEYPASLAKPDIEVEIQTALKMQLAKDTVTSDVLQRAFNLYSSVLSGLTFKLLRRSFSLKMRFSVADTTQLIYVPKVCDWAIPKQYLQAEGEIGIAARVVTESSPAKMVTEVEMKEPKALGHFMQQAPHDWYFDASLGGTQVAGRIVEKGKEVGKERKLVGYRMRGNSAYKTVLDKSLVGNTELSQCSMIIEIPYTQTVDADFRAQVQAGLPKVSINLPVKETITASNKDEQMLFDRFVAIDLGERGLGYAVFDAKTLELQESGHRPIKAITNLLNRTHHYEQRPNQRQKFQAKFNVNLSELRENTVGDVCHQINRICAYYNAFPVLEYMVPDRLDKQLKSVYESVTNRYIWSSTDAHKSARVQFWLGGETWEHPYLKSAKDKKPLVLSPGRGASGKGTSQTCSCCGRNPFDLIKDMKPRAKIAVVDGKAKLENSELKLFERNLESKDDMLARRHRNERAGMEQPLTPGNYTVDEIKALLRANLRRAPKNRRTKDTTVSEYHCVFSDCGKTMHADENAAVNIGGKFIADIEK

B1: Cas12c2 sgRNA (112 nt) (structured_RNA)
RNA: GGAUACCACCCGUGCAUUUCUGGAUCAAUGAUCCGUACCUCAAUGUCCGGGCGCGCAGCUAGAGCGACCUGAAGAAAUUCAGGUUGGGUUUGAGGGGAAAUUAGGUGCGCUU
B2: sgRNA + 33-bp target DNA, TG PAM (guide/target strand/non-target strand) (mixed)
RNA: B1 RNA
DNA 1: AGGTTGCCAAGCGCACCTAATTTCCCATTTTAG
DNA 2: CTAAAATGGGAAATTAGGTGCGCTTGGCAACCT

Experiments:
[1] = target: T1, Cas12c2; assay: cryo-EM
[2] = target: T1, Cas12c2; assay: cryo-EM; remark: listed apart in the source

Row | Binder | binding result [1] | binding result [2]
1 | B1 | binds | –
2 | B2 | – | binds
